This passage reports protein production results from a protein production outcome set (Wang et al. 2014).

This data set can be described thus: label from the status in PepcDB records.
As for “MRGWTAVTDTAGTPSGDGPEQAAVPGPGGGASPIGAGLVRRRRRWLRHTAFGVAALVLGAAGAGWAVYEKLNSNITADEAAAAELARYEKERPTSLVRDAQNILLIGSDSRSGDGNSQYGRDTGTERSDTTILLHLPANRHSATAVSLPRDLMVDIPSCRRPDGTRTAPTFAMFNQAFETGGSACTIRTAEKLTNVRIDHHMVVDFSGFKEMVDAVDGVEVCLKDPIDDKDAKLRLPAGKQLLDGEQALGYVRARKSIGNGSDTDRMDRQQRFLGALVNKVQGNDVLLNPVKLYPVLDAATSSLTTDPDLASLRGLYELVRGMRNIPPERVQFLTVPRTSYVNNANRDQLVEPDAEKLFARLRADAPLEVAKDYAGYDEQSGGDGTLSGKPLDTPAGTPDPTPTFRGNTAAEDGCE”, the protein production result is reported as “failed”.
The same measure for “MRIEVVNVSHIFHRGTPLEKKALENVSLVINEGECLLVAGNTGSGKSTLLQIVAGLIEPTSGDVLYDGERKKGYEIRRNIGIAFQYPEDQFFAERVFDEVAFAVKNFYPDRDPVPLVKKAMEFVGLDFDSFKDRVPFFLSGGEKRRVAIASVIVHEPDILILDEPLVGLDREGKTDLLRIVEKWKTLGKTVILISHDIETVINHVDRVVVLEKGKKVFDGTRMEFLEKYDPRFFTSKMLVMRRLVLKGEDPFSMSDDELLERVCNS”: “not failed”; for “NLNSIQNFGAIDILCTDKTGTLTQDKVVLEYHLNVNGEDDTRVLRHAYLNSYFQTGYKNLMDLAIIHKTEEEEAADSRLIDLSENYVKVDEIPFDFTRRRLTTVVQDNKGKTQMVTKGAVEEMLSICAFAECNGGVQPLTDDVRYRILETVDNLNDKGFRVLAIAQKSNPSPIGAFGVKDECDMVLIGYLAFLDP”: “failed”; for “MDRGGVLRVAAAALPAYAYFYNVGSIGFWLPLHVRELGWPYTYITLIATWYFVAVTLATPLVGLLSDLTRRPGYILAGGMAVVAATSVAIPHVENPPLLMALRALQGLGLAVGLPIALGSLSLIQGVRRGVASTVIASGLGMSGGAFLSGLMVEYLGFPALFYAAAVPAALSTLVALGWRPPPPPSGSPGLLAALRSMPWEVLVVMAGIAVRNTFASGVFSVVSIIFNKIVGISYTATGVVLAINPAVQASVTTVFERIMRGRALLLYSTGLSGTALAFYLYLTAGSALDLAAAQIALGAFYGATVVSGNTMIIALAPSEIRYTASSLYTFAFNIGWILGTSIAGKVMDAAGVDAWIKLAIAGTLVSGLIPLTLLASPRARRI”: “failed”.
The same measure for “MDLLEYQVKEWFGEIGIPVLPSQRIDHPTDLKRLKIRYPIVLKSQVHAGEREKVGGVRMVETTIDAIAAAQTIFNLSIWGELPEVLLAESKYNSHQEFYLAVVLDTAVCRPVLLGSTEADIDLELADQKMQYVVVEQEFSPFYARRLALKMGLQGTLMQSVSTVLEKMYQLFVQKDLDLVEINPLGVNLAGEVMALNGKVGVNERAIGRHPEIAAMAAKIIPRHYDKSFSNGRDWNNLEKQRRIGILGNGTGSILATYDLVASGGGKPGICLNLRHAAITDLSPTKFGDRLTKGLNTLAADKNTQVILINLLGSIPQPEEAAQAIAQFIQQNKGEYPPSIAKSNGKNLSQHQSPQLVIRLAGSELNAAKEVLAALQTHEEGLILVEDLDEAVATAVRLTKSHAYKKVS”: “failed”.
Take “MNKRKMIGAHSALALLALAVSQVHAADPTVQQGREDRAEKAAQKTLAKMTMEEKLAYIGGTGGWDVKPLTNYGVPQIHGADGGVGVRYTSEGNDQGVVYPSGPNLAATFNPRRAIDLGRALGYDTATGGYQFITGPGVNLYRMPYGGRAFEYLSGEDPFLGASLAPGVINGIQSRGVWANAKHYAANDQESNRFNLDQKMPERVLREMSLPAFESSSKNGNVAMMMCAFQKVNGDFACESEHLIAQILKKEWGYKGFVQSDYNAVVHGFEAARAGTDLDMMGYQMNSSVLKPHLDAGDLSAATIDDKVRRILKQIYLYKFDSKAPLTTHNMNSSTSNKVALNAAREGIVLLKNQGDLLPLDKQKVKKIAVVGTLAKYAPPTGFGSANVMASHYVSELSGLQQMAPNAKVEFIDGLSLDPSTSAWNTTDAAGNSVQGMKVEYFSNTNWSGDAAVTRTEQHVDLDWANDKNLPFESNTSTSDPYTTKGSTAGELNGDTSSTSIRYTGKITPTQSGEQVFKVRADGAVRLWVNGKKIIDNGDGKPLPGNSIPPTIPEFAKINLEAGQSYDVKLEYSRRAGYLSTMGGLVGVQLSSASLNAPQDLSGYDAVVVAVGNSNEYEGEGFDHSFDLPEFQNELIQNIAKVNPNTVVTMYGGTGLKMSDWIEQVPVALHAFYPGQNGGQALAEILFGKINPSGKLPISIERNIEDNPAYASFPKFDNQNTLAEMDYKDDLMLGYRGYEKKGIKPLYPFGYGLSYTTFGYSNIKVTPGVAVGNTPIKVSFDLTNTGKVGGSEVAQLYVGQQNPKVERPIKELKGYKKVFLKPGESKRVTIELNDRSLAYFDVKTNQWVVDADTFNLSLGGSSQDIRLNAKLVNSFRQELSTTTSNPLPRSALNSVLVEKPPVKTGGVFQQTVE”: the protein production entry is reported as “failed”.
As for “MNAMLVGADTLGNIPDVLQNYGITIHRHLSGRNSSHQRKVDRLPAGTDLLILFTDFLGHNVMRHFRELAAEQQIRFIACRRSVCALKQSLTGAGMCEQPCAACPQRSGGDKPVKRKR”, the protein production result is “failed”.
The same measure for “MKFGRKCRIIVFISLVLFTFPVFSQDKNFTDKPSSSDKRVASEEFRRGVQAYYRGTFNEAILLFEKALSYLPDESLILDWLGKAYYSSGVEGAALTQWELAEAAGYGGMLLKNKIEILKESRSLTPYSSDNIKYVENSSFSSKNGTVELFRQPLSIAAVSDGSFWMTAYGSNELLHFNVNGIILDRTKGPIQGFDRPFDVIALSDGNLLVSEFAADRISLLDKNGSFIKSFGTRGRGNGEFIGPQFLAEDEYGNIYVCDFGNARIVVFSSAGEPLFTFGKKSGLFGGFTAPAGIAVVDGLVYIADAIKGAVYTFDTAGNFVQSLLPEGTLKQIESLREWNGNLVASAGNKAYLIDIAFSTVSELTSLGNVPTKITAAVPDVNGSLLLIDHKNQTVEITSRINELAGGLFVLIKKVYSDKFPEVLVEVSVQNRDGKQIVGLTQDNFIITEGNRPVADYSLTGSSYLNKTCDIAVIVERSPNSLKEKALIEAALKEIAEAMQGRGKISLISASSIPALEGKFSPADLITLPNRIKTPASSDWKLDLALRLAVGELINAEQKRAVLFLNFSDPNSDNFKQYNLNDLASYMKNNNIRFYPISLKKGAPASEMSYLAKKTGGKTSYIYAERGLKPLIDDIIEKPLGMYQLKYTSTMSTDFGRSFLPVEVEVQLLERSGRDEIGYFAPLE”: “failed”.
The same measure for “MNFLSQRYTGKSLHPDETKCYKNFTQTAQKLTHRLAESINHYVNHIDCVINTNLYNRLLAEKKESNHMIYKERETWLEAILNTLPDHVFILDESGRYIESFGGTHHSKTFNAERYIGLQLSDVLSPTKADELMGFIFDVMQDNETKVVKYNLSLHDHLLLPIEELEALENPEEMWFEAIIKPVNAPENANKLVIWSVRDITKTHLLEQRLKQLSETDALTGLLNRRAFISNLDNAIIQHTKRSQTLSCLMIDIDHFKDINDSVGHFSGDHVITRIAHVCQGVIRGSDFIGRLGGEEFAVILTDTNAIQAYEVAERIRQAIQATICHVDDVEITTTVSIGVAELNSQQSNAKELLIEADKAMYYSKHSGRNQVTLAYENLPDLKLYQAGHLKIQRVS”: “failed”.
For “MYQTQTNKEKFVLFLKLFIPVLIYQFANFSATFIDSVMTGQYSQLHLAGVSTASNLWTPFFALLVGMISALVPVVGQHLGRGNKEQIRTEFHQFLYLGLILSLILFLIMQFIAQPVLGSLGLEDEVLAVGRGYLNYMLIGIMPLVLFSICRSFFDALGLTRLSMYLMLLILPFNSFFNYMLIYGKFGMPRLGGAGAGLGTSLTYWAIFIVIIIVMSLHPQIKTYHIWTLERIKAPLIIEDIRLGLPIGLQIFAEVAIFAVVGLFMAKFSSIIIAAHQAAMNFSSLMYAFPLSISTALAITISFEVGAERFQDANTYSRIGRLTAVGITSGTLLFLFLFRENVAAMYNSDPHFVAITAQFLTYSLFFQFADAYAAPVQGILRGYKDTTKPFMIGAGSYWLCALPLAVILEKNSQLGPFAYWIGLITGIFVCGLFLNQRLQKIKKLYY” the value was “failed”.
In the case of “MSLEKPYIISVYALIRNEKGEFLLLRRSENSRTNAGKWDLPGGKVNPDESLKEGVAREVWEETGITMVPGDIAGQVNFELTEKKVIAIVFDGGYVVADVKLSYEHIEYSWVSLEKILGMETLPAYFRDFFERFDRENKKPSKLFIEGHHHHHH”, the protein production entry is listed as “not failed”.
For “MRFPPLLFFQDSEAVKRIANSVRGTKDDDAEIKDHSMRFIRNAISGDQQKEILNVDMLRYIAWVLVALNENIVTARTVIRERDAVEDALKNQQPEDIENFADDLKINMKYNRDLERFEIGVFDFVKYASRVTGSQYRLSNQSVIKGIVYCQKDVAIKILRESFVSNMFKVIDSIDQTTASPVLSDQTDSINELREFYKKSVYAKLTIGRGNTKAFPPCMKEIIRNLHEGINVPHMGRLAIASFLHKVGYTEDEIVEYFRNAPDFDESITRYQIKHLSGEISGVEYSPPKCETMRSNHLCFMDDDKLCHQDWMKHPLTYYEVKSRRLGLEHHHHHH” the value was “failed”; for “MNENAPTHKSSHKVKTHTPVSGYHIEDLRTYPTEKLLEIANKLKVENPQEFKRQDLMFEILKTQVTQGGYILFTGILEIMPDGYGFLRGFDGSFSDGHNDTYVSPSQIRRFALRNGDIVTGQVRSPKDQEKYYALLKIEAINYSPSDEIRNRPLFDNLTPLFPDEQIKLEYEPTKVTGRMLDLFSPVGKGQRALIVAPPRTGKTELMKELAQGITSNHPEVELIILLVDERPEEVTDMQRSVKGQVFSSTFDLPANNHIRIAELVLERAKRRVEMGKDVVVLLDSITRLARAYNAVTPSSGKVLSGGVDANALHRPKRFFGAARNIEEGGSLTIIATALIETGSRMDEVIFEEFKGTGNSEIVLARNIADRRIYPAFDILKSGTRKDNILLGKDRLTKVWVLRNVMQQMDDIEALSFVYSKMQQTKDNEEFLNLMNEK”, “failed”; for “MFNAGNRIINTWLYPIQDGFVLIDTGYENGFKHFKKRISKFNIKIKDIRYIFLTHAHDDHVGFLNQILDESPNTKIVMHDKALEILYKGQNSFIGGCTSRTAFLFCQIMKLFGKGEHSFSPLKQEFEKRCILVSDKNRKEIEKELNGKIIDTPGHTDDSISLLIDDGVLFCGDSAMNGFPSTHKITIFAESKLEFIQSWKTIINTKPKMIYPGHGKPFEYSKLEQNLIYVNKINLYPLHNSKDIHRFL”, “failed”.
Take “MSKATTPGDQPKVSEMDFYQLLGVEKMASEAEIKSAYRKLALKYHPDRNPNDAHAQEEFKKVSIAYSVLSDPNKRRQYDVSGPSENQLDFEGFDVSEMGGVGRVFGALFSKLGVPIPTQIVPKVLAQARHICMGQECDVQARQLPPGETVTSSVSKQHAHFYEINIQEEHRKNGVAIICKSSSSKFKLVLFDKEGGVRMIQESGKRGKAGTQADMFFVPYNVANIQEFNAMKYHLEDKETPLAFHYLDSFEMQTATLLETRKHYIAVYGDNWISDVKYSITFLPVEPSAVEQLNEIQDTEKSISIIKKEMLDFQREFTEAKRKYDEAVAKLKVQDDTILKALAHREELYNEVLQKSQEPYNKKVSPSKSSGGLLGWFK”: the protein production entry is recorded as “not failed”.
For “GSSGSSGMPMTLGYWDIRGLAHAIRLFLEYTDSSYEEKRYTMGDAPDYDQSQWLNEKFKLGLDFPNLPYLIDGSHKITQSNAILRYLGRKHNLCGETEEERIRVDILENQLMDNRMVLARLCYNADFEKLKPGYLEQLPGMMRLYSEFLGKRPWFAGDKITFVDFIAYDVLERNQVFEAKCLDAFPNLKDFIARFEGLKKISDYMKTSRFLPRPMFTKMATWGSNSGPSSG” the value was “not failed”; for “MRCKRHTVDFSSSIGVCASCLRERLFTLAVSTAASENDDNDHRHSRISPPPLLFPRSVSPYVAPRKSDAGTGTGAGGRDSVASSNNRFFATPQVVVQSSSSEKVFESDRSFKKKKSGLSRFSSFFRTRSDDYDSRRDSCDASTVFSQPSSATTSRSWFSKVISVRSKKQSTTNTCYIEDLIASESDHHHHNQNRPRQRYCRGMSPAGDSTTNDESVEESPGRLRRTPVMGTPGRKKTATIGIGRSVSGMAFCLSPLVRAKPNCSSNWKAKFPPDFGYSGELKSPAKPHLSTAASFCGNRSKKLVDLGRVDHRR”, “failed”.
